Patent publication US20040006018A1

Biological target: Mouse CT-1 fusion protein (mouse cardiotrophin-1 with a 34 amino acid N-terminal extension that encodes a portion of the herpes simplex virus glycoprotein D and a factor Xa cleavage site) (mouse) (UniProt Q60753)
Assay: 125I-mouse CT-1 binding to soluble LIF receptor with added soluble gp130, Ni-NTA agarose

Chain of Mouse CT-1 fusion protein (mouse cardiotrophin-1 with a 34 amino acid N-terminal extension that encodes a portion of the herpes simplex virus glycoprotein D and a factor Xa cleavage site) (mouse) (Q60753 whole entry, the tested form may be a part): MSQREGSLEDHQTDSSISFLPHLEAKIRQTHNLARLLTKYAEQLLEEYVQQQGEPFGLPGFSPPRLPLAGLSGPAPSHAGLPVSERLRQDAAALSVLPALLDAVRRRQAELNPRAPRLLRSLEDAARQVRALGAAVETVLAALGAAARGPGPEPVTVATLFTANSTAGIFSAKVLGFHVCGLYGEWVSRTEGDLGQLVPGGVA

Work on “Soluble mouse gp130 (extracellular domain, amino acids 1-617, with a C-terminal tag of 6 histidine residues) (from UniProt Q00560 23-617) (receptor)” yielded a concentration of soluble gp130 required to increase the binding of CT-1 to the soluble LIF receptor of 100 nM.
